Target: HA-tagged type II TGF-β receptor (TβRII) (human, UniProt P37173 23-567)
Experiment: patch/FRAP

HA-tagged type II TGF-β receptor (TβRII), sequence (P37173 23-567): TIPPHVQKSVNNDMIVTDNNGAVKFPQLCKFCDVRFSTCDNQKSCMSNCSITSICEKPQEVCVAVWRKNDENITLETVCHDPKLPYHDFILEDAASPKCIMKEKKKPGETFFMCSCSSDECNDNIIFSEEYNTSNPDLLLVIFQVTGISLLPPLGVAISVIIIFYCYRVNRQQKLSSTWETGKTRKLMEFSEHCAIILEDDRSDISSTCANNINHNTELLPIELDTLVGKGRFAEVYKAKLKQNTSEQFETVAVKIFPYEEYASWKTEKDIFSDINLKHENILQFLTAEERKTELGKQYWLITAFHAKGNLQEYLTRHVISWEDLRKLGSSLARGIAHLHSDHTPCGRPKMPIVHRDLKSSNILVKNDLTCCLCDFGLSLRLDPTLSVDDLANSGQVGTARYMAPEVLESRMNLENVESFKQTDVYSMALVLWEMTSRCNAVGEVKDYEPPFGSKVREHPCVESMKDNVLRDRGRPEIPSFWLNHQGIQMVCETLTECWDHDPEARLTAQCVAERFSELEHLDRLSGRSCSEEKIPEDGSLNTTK

B1: myc-tagged ALK5 (type I TGF-β receptor, TβRI) (receptor)
chain: LQCFCHLCTKDNFTCVTDGLCFVSVTETTDKVIHNSMCIAEIDLIPRDRPFVCAPSSKTGSVTTTYCCNQDHCNKIELPTTVKSSPGLGPVELAAVIAGPVCFVCISLMLMVYICHNRTVIHHRVPNEEDPSLDRPFISEGTTLKDLIYDMTTSGSGSGLPLLVQRTIARTIVLQESIGKGRFGEVWRGKWRGEEVAVKIFSSREERSWFREAEIYQTVMLRHENILGFIAADNKDNGTWTQLWLVSDYHEHGSLFDYLNRYTVTVEGMIKLALSTASGLAHLHMEIVGTQGKPAIAHRDLKSKNILVKKNGTCCIADLGLAVRHDSATDTIDIAPNHRVGTKRYMAPEVLDDSINMKHFESFKRADIYAMGLVFWEIARRCSIGGIHEDYQLPYYDLVPSDPSVEEMRKVVCEQKLRPNIPNRWQSCEALRVMAKIMRECWYANGAARLTALRIKKTLSQLSQQEGIKM
With B1 the “fold increase of complex formation with TGF-β1 against no ligand” value was about 2 fold.

Reference: PMC4551323 (Molecular Biology of the Cell, 2015)
